Numbering of substitutions follows the chain as printed. Names and notes keep the numbering of the source. Values belong to the binder of their own block, whether it stands above or below them.
Key:
[1] = molecular target: T1, TNKS1-Arc1 (183–335aa) (human, UniProt O95271 183-335); assay: pull-down; 150 μg GST fusion protein on Glutathione-Sepharose 4B beads; 0.1 μM prey protein; 25 mM Hepes pH 7.4, 150 mM NaOAc, 0.2% Triton, 1 mM DTT; 4 °C, 2 h; western blot; conditions: both partners purified
T1 construct: human Tankyrase-1 (TNKS1), ARC (Ankyrin Repeat Cluster) domain 1, residues 183-335; pET24b plasmid; also called Arc I; ArcI; source: E. coli BL21 (DE3), purified (Ni-NTA Agarose); not shown: His6, C-terminal, kept
T1 sequence (looked up): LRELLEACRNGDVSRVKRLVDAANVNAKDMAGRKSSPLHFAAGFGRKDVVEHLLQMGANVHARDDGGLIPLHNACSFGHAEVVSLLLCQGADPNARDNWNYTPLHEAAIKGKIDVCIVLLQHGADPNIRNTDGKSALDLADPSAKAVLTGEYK

[2] = molecular target: T1, TNKS1-Arc1 (183–335aa); assay: BLI; Octet RED96; GST fusion proteins loaded on GST biosensors at 10 ug/ml; TNKS1-Arc1 as analyte (0.16-4.56 μM); 25 °C; 25 mM Hepes pH 7.4, 150 mM NaOAc, 0.2% Triton, 1 mM DTT; steady-state fit; conditions: both partners purified

binding result [1]: binds
B1: GST-Golgin45 N70 S49D (domain or fragment, human, UniProt Q9H2G9 1-70, looked up)
chain: MTTKNLETKVTVTSSPIRGAGDGMETEEPPKSVEVTSGVQSRKHHSLQDPWKKAVPSESPGVLQLGKMLT
notes: Golgin45 (BLZF1), N-terminal residues 1-70, phospho-mimicking S49D in the Cdc2 consensus 49SPWK52; also called GST-Golgin45 S49D mutant; source: E. coli BL21 (DE3), purified (Glutathione HiCap Matrix)

Kd [2]: ~1460 nM
B2: GST-Golgin45 N-terminal domain (amino acid 1–70) (domain or fragment, human, UniProt Q9H2G9 1-70, looked up)
chain: B1 chain with D49S
notes: Golgin45 (BLZF1), N-terminal residues 1-70; pGEX-6p-1 plasmid; also called GST-Golgin45 N70 wt; Golgin45 N70 WT; source: E. coli BL21 (DE3), purified (Glutathione HiCap Matrix)

Kd [2]: 2780 ± 80 nM
B3: GST-Golgin45 N70 S15D (domain or fragment, human, UniProt Q9H2G9 1-70, looked up)
chain: B1 chain with S15D, D49S
notes: Golgin45 (BLZF1), N-terminal residues 1-70, phospho-mimicking S15D in the Cdc2 consensus 15SPIR18; also called S15D mutated GST-Golgin45; Golgin45 S15D mutant; source: E. coli BL21 (DE3), purified (Glutathione HiCap Matrix)

From publication PMC8651787, “Tankyrase-1-mediated degradation of Golgin45 regulates glycosyltransferase trafficking and protein glycosylation in Rab2-GTP-dependent manner” (Communications Biology, 2021)
